The values that follow are results of earlier work, collected in paper PMC8035318.

This series has as its target Polκ RIR (Homo sapiens) (UniProt Q9UBT6). The experiment in a line: SPR. Background: In SPR one partner is held on a chip, and binding of the other changes the refractive index at the surface.

As to Rev1 CT (from UniProt Q9UBZ9), the equilibrium dissociation constant (Kd) was 1.7 µM.

The Kd is the free concentration of one partner at which half of the binding sites on the other are occupied at equilibrium, for simple one-to-one binding.
